B1: ISL2 (parent)
chain: HYPFLGAMGDHSKKKPGTAMCVGC
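Also: lentivirally expressed fusions sorted by FACS into six bins by GFP to DsRed ratio, PSI derived from sequencing read proportions per bin multiplied by bin number.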

Variants of: B1
Experiment: protein stability index of a GFP-peptide fusion (GPS, HEK-293T) (PSI 1-6); higher = more stable
Conditions: c terminus: a fixed tail appended
Variant RYPFLGAMGDHSKKKPGTAMCVGC [H1R] has a protein stability index of 2.7.
Variant FYPFLGAMGDHSKKKPGTAMCVGC [H1F] has a protein stability index of 2.02.
In the case of NYPFLGAMGDHSKKKPGTAMCVGC [H1N], the protein stability index is reported as 3.84.
With YYPFLGAMGDHSKKKPGTAMCVGC [H1Y] the protein stability index was 1.99.
For EYPFLGAMGDHSKKKPGTAMCVGC [H1E], the protein stability index was 2.05.
CYPFLGAMGDHSKKKPGTAMCVGC [H1C] gave a protein stability index of 2.11.
Work on MYPFLGAMGDHSKKKPGTAMCVGC [H1M] yielded a protein stability index of 1.82.
Variant TYPFLGAMGDHSKKKPGTAMCVGC [H1T] has a protein stability index of 2.69.
In the case of GYPFLGAMGDHSKKKPGTAMCVGC [H1G], the protein stability index is reported as 2.64.
In the case of IYPFLGAMGDHSKKKPGTAMCVGC [H1I], the protein stability index is reported as 1.95.
With SYPFLGAMGDHSKKKPGTAMCVGC [H1S] the protein stability index was 2.58.
For AYPFLGAMGDHSKKKPGTAMCVGC [H1A], the protein stability index was 3.6.
Work on PYPFLGAMGDHSKKKPGTAMCVGC [H1P] yielded a protein stability index of 2.75.
Work on LYPFLGAMGDHSKKKPGTAMCVGC [H1L] yielded a protein stability index of 2.01.
QYPFLGAMGDHSKKKPGTAMCVGC [H1Q] gave a protein stability index of 2.92.
Variant HYFFLGAMGDHSKKKPGTAMCVGC [P3F] has a protein stability index of 1.93.
Variant HYDFLGAMGDHSKKKPGTAMCVGC [P3D] has a protein stability index of 1.96.
Variant HYYFLGAMGDHSKKKPGTAMCVGC [P3Y] has a protein stability index of 1.69.
In the case of HYLFLGAMGDHSKKKPGTAMCVGC [P3L], the protein stability index is reported as 1.77.
HYGFLGAMGDHSKKKPGTAMCVGC [P3G] gave a protein stability index of 3.08.
HYSFLGAMGDHSKKKPGTAMCVGC [P3S] showed a protein stability index of 2.27.
With HYKFLGAMGDHSKKKPGTAMCVGC [P3K] the protein stability index was 2.15.
HYMFLGAMGDHSKKKPGTAMCVGC [P3M] showed a protein stability index of 2.18.
With HYVFLGAMGDHSKKKPGTAMCVGC [P3V] the protein stability index was 2.06.
HYHFLGAMGDHSKKKPGTAMCVGC [P3H] showed a protein stability index of 2.31.
Variant HYCFLGAMGDHSKKKPGTAMCVGC [P3C] has a protein stability index of 2.84.
With HYWFLGAMGDHSKKKPGTAMCVGC [P3W] the protein stability index was 1.76.
Work on HYTFLGAMGDHSKKKPGTAMCVGC [P3T] yielded a protein stability index of 2.04.
Variant HYIFLGAMGDHSKKKPGTAMCVGC [P3I] has a protein stability index of 2.26.
HYRFLGAMGDHSKKKPGTAMCVGC [P3R] gave a protein stability index of 2.35.
In the case of HYAFLGAMGDHSKKKPGTAMCVGC [P3A], the protein stability index is reported as 2.32.
With HYQFLGAMGDHSKKKPGTAMCVGC [P3Q] the protein stability index was 3.11.
HYNFLGAMGDHSKKKPGTAMCVGC [P3N] gave a protein stability index of 2.5.
For HYEFLGAMGDHSKKKPGTAMCVGC [P3E], the protein stability index was 3.04.
Work on HYPFLGEMGDHSKKKPGTAMCVGC [A7E] yielded a protein stability index of 3.79.
For HYPFLGDMGDHSKKKPGTAMCVGC [A7D], the protein stability index was 3.68.
In the case of HYPFLGCMGDHSKKKPGTAMCVGC [A7C], the protein stability index is reported as 3.85.
With HCPFLGAMGDHSKKKPGTAMCVGC [Y2C] the protein stability index was 2.53.
Variant HFPFLGAMGDHSKKKPGTAMCVGC [Y2F] has a protein stability index of 2.55.
HHPFLGAMGDHSKKKPGTAMCVGC [Y2H] showed a protein stability index of 2.48.
For HQPFLGAMGDHSKKKPGTAMCVGC [Y2Q], the protein stability index was 3.04.
Variant HGPFLGAMGDHSKKKPGTAMCVGC [Y2G] has a protein stability index of 3.54.
Variant HLPFLGAMGDHSKKKPGTAMCVGC [Y2L] has a protein stability index of 3.37.
Work on HNPFLGAMGDHSKKKPGTAMCVGC [Y2N] yielded a protein stability index of 4.08.
With HIPFLGAMGDHSKKKPGTAMCVGC [Y2I] the protein stability index was 2.79.
Work on HMPFLGAMGDHSKKKPGTAMCVGC [Y2M] yielded a protein stability index of 2.97.
HPPFLGAMGDHSKKKPGTAMCVGC [Y2P] showed a protein stability index of 3.58.
HAPFLGAMGDHSKKKPGTAMCVGC [Y2A] showed a protein stability index of 3.43.
In the case of HWPFLGAMGDHSKKKPGTAMCVGC [Y2W], the protein stability index is reported as 2.16.
HTPFLGAMGDHSKKKPGTAMCVGC [Y2T] gave a protein stability index of 4.07.
HDPFLGAMGDHSKKKPGTAMCVGC [Y2D] gave a protein stability index of 4.76.
With HEPFLGAMGDHSKKKPGTAMCVGC [Y2E] the protein stability index was 3.62.
HVPFLGAMGDHSKKKPGTAMCVGC [Y2V] showed a protein stability index of 2.6.
Variant HRPFLGAMGDHSKKKPGTAMCVGC [Y2R] has a protein stability index of 2.94.
HKPFLGAMGDHSKKKPGTAMCVGC [Y2K] showed a protein stability index of 2.83.
Variant HSPFLGAMGDHSKKKPGTAMCVGC [Y2S] has a protein stability index of 3.33.
Variant HYPFIGAMGDHSKKKPGTAMCVGC [L5I] has a protein stability index of 3.14.
HYPFCGAMGDHSKKKPGTAMCVGC [L5C] gave a protein stability index of 3.56.
With HYPFSGAMGDHSKKKPGTAMCVGC [L5S] the protein stability index was 3.1.
HYPFAGAMGDHSKKKPGTAMCVGC [L5A] showed a protein stability index of 3.15.
In the case of HYPFVGAMGDHSKKKPGTAMCVGC [L5V], the protein stability index is reported as 2.63.
In the case of HYPFRGAMGDHSKKKPGTAMCVGC [L5R], the protein stability index is reported as 2.66.
For HYPFEGAMGDHSKKKPGTAMCVGC [L5E], the protein stability index was 3.78.
For HYPFQGAMGDHSKKKPGTAMCVGC [L5Q], the protein stability index was 3.16.
With HYPFHGAMGDHSKKKPGTAMCVGC [L5H] the protein stability index was 2.96.
Work on HYPFTGAMGDHSKKKPGTAMCVGC [L5T] yielded a protein stability index of 2.96.
With HYPFGGAMGDHSKKKPGTAMCVGC [L5G] the protein stability index was 3.5.
With HYPFYGAMGDHSKKKPGTAMCVGC [L5Y] the protein stability index was 2.2.
With HYPFDGAMGDHSKKKPGTAMCVGC [L5D] the protein stability index was 3.75.
For HYPFPGAMGDHSKKKPGTAMCVGC [L5P], the protein stability index was 3.13.
HYPFMGAMGDHSKKKPGTAMCVGC [L5M] showed a protein stability index of 3.01.
HYPFFGAMGDHSKKKPGTAMCVGC [L5F] gave a protein stability index of 3.19.
HYPFWGAMGDHSKKKPGTAMCVGC [L5W] showed a protein stability index of 2.23.
For HYPFKGAMGDHSKKKPGTAMCVGC [L5K], the protein stability index was 2.47.
Variant HYPFNGAMGDHSKKKPGTAMCVGC [L5N] has a protein stability index of 2.49.
In the case of HYPFLIAMGDHSKKKPGTAMCVGC [G6I], the protein stability index is reported as 2.27.
With HYPFLEAMGDHSKKKPGTAMCVGC [G6E] the protein stability index was 3.16.
With HYPFLPAMGDHSKKKPGTAMCVGC [G6P] the protein stability index was 2.83.
HYPFLLAMGDHSKKKPGTAMCVGC [G6L] showed a protein stability index of 2.07.
In the case of HYPFLWAMGDHSKKKPGTAMCVGC [G6W], the protein stability index is reported as 1.75.
Work on HYPFLYAMGDHSKKKPGTAMCVGC [G6Y] yielded a protein stability index of 2.49.
Variant HYPFLQAMGDHSKKKPGTAMCVGC [G6Q] has a protein stability index of 2.81.
In the case of HYPFLAAMGDHSKKKPGTAMCVGC [G6A], the protein stability index is reported as 3.07.
With HYPFLNAMGDHSKKKPGTAMCVGC [G6N] the protein stability index was 2.54.
HYPFLDAMGDHSKKKPGTAMCVGC [G6D] showed a protein stability index of 3.2.
HYPFLHAMGDHSKKKPGTAMCVGC [G6H] gave a protein stability index of 2.46.
HYPFLSAMGDHSKKKPGTAMCVGC [G6S] showed a protein stability index of 2.32.
With HYPFLFAMGDHSKKKPGTAMCVGC [G6F] the protein stability index was 1.86.
Variant HYPFLMAMGDHSKKKPGTAMCVGC [G6M] has a protein stability index of 2.07.
HYPFLVAMGDHSKKKPGTAMCVGC [G6V] gave a protein stability index of 1.93.
HYPFLKAMGDHSKKKPGTAMCVGC [G6K] showed a protein stability index of 2.92.
With HYPFLTAMGDHSKKKPGTAMCVGC [G6T] the protein stability index was 2.81.
Work on HYPFLRAMGDHSKKKPGTAMCVGC [G6R] yielded a protein stability index of 2.13.
With HYPFLCAMGDHSKKKPGTAMCVGC [G6C] the protein stability index was 3.15.
